B1: ParC55 breakage-reunion domain of S. pneumoniae topo IV (domain or fragment, Streptococcus pneumoniae)
chain: MSNIQNMSLEDIMGERFGRYSKYIIQDRALPDIRDGLKPVQRRILYSMNKDSNTFDKSYRKSAKSVGNIMGNFHPHGDSSIYDAMVRMSQNWKNREILVEMHGNNGSMDGDPPAAMRYTEARLSEIAGYLLQDIEKKTVPFAWNFDDTEKEPTVLPAAFPNLLVNGSTGISAGYATDIPPHNLAEVIDAAVYMIDHPTAKIDKLMEFLPGPDFPTGAIIQGRDEIKKAYETGKGRVVVRSKTEIEKLKGGKEQIVITEIPYEINKANLVKKIDDVRVNNKVAGIAEVRDESDRDGLRIAIELKKDANTELVLNYLFKYTDLQINYNFNMVAIDNFTPRQVGIVPILSSYIAHRREVILARSRFDKEKAEKRLHIVEGLIRVISILDEVIALIRASENKADAKENLKVSYDFTEEQAEAIVTLQLYRLTNTDVVVLQEEEAELREKIAMLAAIIGDERTMYNLMKKELREVKKKFATPRLSSLEDTAKALE
modifications: Y118 covalently linked to the 5′-phosphate of the cleaved DNA (phosphotyrosyl linkage)
notes: ParC55, the breakage-reunion domain of topoisomerase IV subunit ParC, S. pneumoniae; residues 247-734 of the printed fusion; In the crystals this domain stood on one chain with ParE30, joined through one extra histidine, as the fusion protein m1; also called ParC domains; ParC dimer; source: E. coli BL21(λDE3) pLysS, purified to >95% homogeneity (as part of the ParE30-ParC55 fusion protein)

What was measured:
[1] = molecular target: the molecule itself; assay: crystal structure; ParE30-ParC55 fusion protein (4.5 mg/ml) mixed with 18-mer V-site or E-site duplex DNA at 1:1.2 molar ratio, 2 mM delafloxacin, 10 mM MgCl2; sitting-drop vapour diffusion, 50 mM sodium cacodylate, 62.5 mM KCl, 7.5 mM MgCl2, 2.5% Tacsimate, 5.5–7% isopropanol, pH 6.5, 301 K; V18 with PEGylated graphene nucleant 2.0 Å, V18 and E18 without 2.4 Å
[2] = molecular target: B1; assay: as above; conditions: both partners purified

Binder	binding result [1]	binding result [2]
B1	binds	
ParE30 metal binding TOPRIM domain of S. pneumoniae topo IV (domain or fragment, Streptococcus pneumoniae, residues 2-245 of the printed fusion; In the crystals this domain stood on one chain with ParC55, joined through one extra histidine, as the fusion protein m1; also called ParE TOPRIM domain; ParE domains; source: E. coli BL21(λDE3) pLysS, purified to >95% homogeneity (as part of the ParE30-ParC55 fusion protein)) MKNKKDKGLLSGKLTPAQSKNPAKNELYLVEGDSAGGSAKQGRDRKFQAILPLRGKVINTAKAKMADILKNEEINTMIYTIGAGVGADFSIEDANYDKIIIMTDADTDGAHIQTLLLTFFYRYMRPLVEAGHVYIALPPLYKMSKGKGKKEEVAYAWTDGELEELRKQFGKGATLQRYKGLGEMNADQLWETTMNPETRTLIRVTIEDLARAERRVNVLMGDKVEPRRKWIEDNVKFTLEEATVF		binds
